{"source": "the RNAGym collection of RNA variant scans (doi:10.1093/molbev/msab373)", "parents": {"B1": {"name": "Azoarcus group I ribozyme (parent)", "chain": "GUGCCUUGCGCCGGGAAACCACGCAAGGGAUGGUGUCAAAUUCGGCGAAACCUAAGCGCCCGCCCGGGCGUAUGGCAACGCCGAGCCAAGCUUCGGCGCCUGCGCCGAUGAAGGUGUAGAGACUAGACGGCACCCACCUAAGGCAAACGCUAUGGUGAAGGCAUAGUCCAGGGAGUGGCGAAAGUCACACAAACCGG"}}}
{"variants_of": "B1", "experiment": "reverse-splicing fitness (ratio to wild type); higher = more active; in vitro selection; Mg2+ level not given", "summary_of_the_method": "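An in vitro group I ribozyme library with randomized positions was T7-transcribed and gel-purified. In triplicate, 10 pmol RNA in EPPS pH 7.5 was reacted with 50 pmoles of a 30-nt RNA substrate for 1 h at 37 °C across several added MgCl2 levels (1–48 mM), then stopped with EDTA. Products were reverse transcribed from a substrate-complementary primer, PCR-amplified and sequenced (HiSeq 4000). Fitness is a variant's read proportion after selection over that before, normalised to wild type.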"}
{"variant": "GUGCCUUGCGCCGGGAAACCACGCAAGGGAUGGUGUCAAAUUCGGCGAAACCUAAGCGCCCGCCCGGGCGUAUGGCAACGCCGAGCCAAGCUUCGGCGCCUGCGCCGAUGAAGGUGUAGAGACUAGACGGCACCCACCUAAGGCUAACGGUAUGGUGAAGGCAUAGUCAAGGGAGCGGCGAAAGUCACACAAACCGG", "note": "[A145U C150G C169A U176C]", "reverse-splicing fitness": 0.0151}
{"variant": "GUGCCUUGCGCCGGGAAACCACGCAAGGGAUGGUGUCAAAUUCGGCGAAACCUAAGCGCCCGCCCGGGCGUAUGGCAACGCCGAGCCAAGCUUCGGCGCCUGCGCCGAUGAAGGUGUAGAGACUAGACGGCACCCACCUAAGGCUAACGGUAUGGUGAAGGCAUAGUCAAGGGAGAGGCGAAAGUCACACAAACCGG", "note": "[A145U C150G C169A U176A]", "reverse-splicing fitness": 0.0122}
{"variant": "GUGCCUUGCGCCGGGAAACCACGCAAGGGAUGGUGUCAAAUUCGGCGAAACCUAAGCGCCCGCCCGGGCGUAUGGCAACGCCGAGCCAAGCUUCGGCGCCUGCGCCGAUGAAGGUGUAGAGACUAGACGGCACCCACCUAAGGCUAACGGUAUGGUGAAGGCAUAGUCAAGGGAGGGGCGAAAGUCACACAAACCGG", "note": "[A145U C150G C169A U176G]", "reverse-splicing fitness": 0.00602}
{"variant": "GUGCCUUGCGCCGGGAAACCACGCAAGGGAUGGUGUCAAAUUCGGCGAAACCUAAGCGCCCGCCCGGGCGUAUGGCAACGCCGAGCCAAGCUUCGGCGCCUGCGCCGAUGAAGGUGUAGAGACUAGACGGCACCCACCUAAGGCUAACGGUAUGGUGAAGGCAUAGUCAAGGGAGUGGCGAAAGUCACACAAACCGG", "note": "[A145U C150G C169A]", "reverse-splicing fitness": 0.0224}
{"variant": "GUGCCUUGCGCCGGGAAACCACGCAAGGGAUGGUGUCAAAUUCGGCGAAACCUAAGCGCCCGCCCGGGCGUAUGGCAACGCCGAGCCAAGCUUCGGCGCCUGCGCCGAUGAAGGUGUAGAGACUAGACGGCACCCACCUAAGGCUAACGGUAUGGUGAAGGCAUAGUCGAGGGAGUGGCGAAAGUCACACAAACCGG", "note": "[A145U C150G C169G]", "reverse-splicing fitness": 0.0415}
{"variant": "GUGCCUUGCGCCGGGAAACCACGCAAGGGAUGGUGUCAAAUUCGGCGAAACCUAAGCGCCCGCCCGGGCGUAUGGCAACGCCGAGCCAAGCUUCGGCGCCUGCGCCGAUGAAGGUGUAGAGACUAGACGGCACCCACCUAAGGCUAACGGUAUGGUGAAGGCAUAGUCUAGGGAGUGGCGAAAGUCACACAAACCGG", "note": "[A145U C150G C169U]", "reverse-splicing fitness": 0.0635}
{"variant": "GUGCCUUGCGCCGGGAAACCACGCAAGGGAUGGUGUCAAAUUCGGCGAAACCUAAGCGCCCGCCCGGGCGUAUGGCAACGCCGAGCCAAGCUUCGGCGCCUGCGCCGAUGAAGGUGUAGAGACUAGACGGCACCCACCUAAGGCUAACGGUAUGGUGAAGGCAUAGUCCAGGGAGAGGCGAAAGUCACACAAACCGG", "note": "[A145U C150G U176A]", "reverse-splicing fitness": 0.326}
{"variant": "GUGCCUUGCGCCGGGAAACCACGCAAGGGAUGGUGUCAAAUUCGGCGAAACCUAAGCGCCCGCCCGGGCGUAUGGCAACGCCGAGCCAAGCUUCGGCGCCUGCGCCGAUGAAGGUGUAGAGACUAGACGGCACCCACCUAAGGCUAACGGUAUGGUGAAGGCAUAGUCCAGGGAGCGGCGAAAGUCACACAAACCGG", "note": "[A145U C150G U176C]", "reverse-splicing fitness": 0.351}
{"variant": "GUGCCUUGCGCCGGGAAACCACGCAAGGGAUGGUGUCAAAUUCGGCGAAACCUAAGCGCCCGCCCGGGCGUAUGGCAACGCCGAGCCAAGCUUCGGCGCCUGCGCCGAUGAAGGUGUAGAGACUAGACGGCACCCACCUAAGGCUAACGGUAUGGUGAAGGCAUAGUCUAGGGAGCGGCGAAAGUCACACAAACCGG", "note": "[A145U C150G C169U U176C]", "reverse-splicing fitness": 0.0406}
{"variant": "GUGCCUUGCGCCGGGAAACCACGCAAGGGAUGGUGUCAAAUUCGGCGAAACCUAAGCGCCCGCCCGGGCGUAUGGCAACGCCGAGCCAAGCUUCGGCGCCUGCGCCGAUGAAGGUGUAGAGACUAGACGGCACCCACCUAAGGCUAACGGUAUGGUGAAGGCAUAGUCUAGGGAGGGGCGAAAGUCACACAAACCGG", "note": "[A145U C150G C169U U176G]", "reverse-splicing fitness": 0.00591}
{"variant": "GUGCCUUGCGCCGGGAAACCACGCAAGGGAUGGUGUCAAAUUCGGCGAAACCUAAGCGCCCGCCCGGGCGUAUGGCAACGCCGAGCCAAGCUUCGGCGCCUGCGCCGAUGAAGGUGUAGAGACUAGACGGCACCCACCUAAGGCUAACGGUAUGGUGAAGGCAUAGUCUAGGGAGAGGCGAAAGUCACACAAACCGG", "note": "[A145U C150G C169U U176A]", "reverse-splicing fitness": 0.0182}
{"variant": "GUGCCUUGCGCCGGGAAACCACGCAAGGGAUGGUGUCAAAUUCGGCGAAACCUAAGCGCCCGCCCGGGCGUAUGGCAACGCCGAGCCAAGCUUCGGCGCCUGCGCCGAUGAAGGUGUAGAGACUAGACGGCACCCACCUAAGGCUAACGGUAUGGUGAAGGCAUAGUCCAGGGAGUGGCGAAAGUCACACAAACCGG", "note": "[A145U C150G]", "reverse-splicing fitness": 0.512}
{"variant": "GUGCCUUGCGCCGGGAAACCACGCAAGGGAUGGUGUCAAAUUCGGCGAAACCUAAGCGCCCGCCCGGGCGUAUGGCAACGCCGAGCCAAGCUUCGGCGCCUGCGCCGAUGAAGGUGUAGAGACUAGACGGCACCCACCUAAGGCUAACGGUAUGGUGAAGGCAUAGUCGAGGGAGAGGCGAAAGUCACACAAACCGG", "note": "[A145U C150G C169G U176A]", "reverse-splicing fitness": 0.0118}
{"variant": "GUGCCUUGCGCCGGGAAACCACGCAAGGGAUGGUGUCAAAUUCGGCGAAACCUAAGCGCCCGCCCGGGCGUAUGGCAACGCCGAGCCAAGCUUCGGCGCCUGCGCCGAUGAAGGUGUAGAGACUAGACGGCACCCACCUAAGGCUAACGGUAUGGUGAAGGCAUAGUCGAGGGAGGGGCGAAAGUCACACAAACCGG", "note": "[A145U C150G C169G U176G]", "reverse-splicing fitness": 0.00509}
{"variant": "GUGCCUUGCGCCGGGAAACCACGCAAGGGAUGGUGUCAAAUUCGGCGAAACCUAAGCGCCCGCCCGGGCGUAUGGCAACGCCGAGCCAAGCUUCGGCGCCUGCGCCGAUGAAGGUGUAGAGACUAGACGGCACCCACCUAAGGCUAACGGUAUGGUGAAGGCAUAGUCGAGGGAGCGGCGAAAGUCACACAAACCGG", "note": "[A145U C150G C169G U176C]", "reverse-splicing fitness": 0.00868}
